{"source": "patent US20250388695A1", "about": "(PROMAB BIOTECHNOLOGIES, published 2025)", "key": {"[1]": {"biological_target": "T1, Human CD3 epsilon chain on CD3-positive T cells (human, UniProt P07766 23-207)", "T1 construct": "whole, on cells; also called CD3 antigen", "T1 sequence (P07766 23-207)": "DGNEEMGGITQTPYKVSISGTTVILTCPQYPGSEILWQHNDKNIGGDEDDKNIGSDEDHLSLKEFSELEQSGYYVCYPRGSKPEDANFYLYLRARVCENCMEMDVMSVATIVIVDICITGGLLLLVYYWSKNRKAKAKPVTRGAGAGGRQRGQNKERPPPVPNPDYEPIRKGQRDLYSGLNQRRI", "assay": "FACS on T cells"}, "[2]": {"biological_target": "T2, Human EPCAM (Epithelial Cell Adhesion Molecule) on EPCAM-positive Lovo cells (human, UniProt P16422 24-314)", "T2 construct": "whole, on cells; Endogenous EPCAM on the Lovo colon cancer cell line; also called EPCAM antigen; CD326", "T2 sequence (looked up)": "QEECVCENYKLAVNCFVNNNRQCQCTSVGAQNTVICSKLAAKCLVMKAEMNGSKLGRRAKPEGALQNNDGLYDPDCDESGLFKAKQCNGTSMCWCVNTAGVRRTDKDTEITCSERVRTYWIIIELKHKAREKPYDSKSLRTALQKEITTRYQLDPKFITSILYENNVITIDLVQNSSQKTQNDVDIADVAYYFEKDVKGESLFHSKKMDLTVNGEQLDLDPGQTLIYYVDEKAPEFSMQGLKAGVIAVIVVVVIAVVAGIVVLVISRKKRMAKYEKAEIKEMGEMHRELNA", "assay": "FACS on EPCAM-positive cells"}, "[3]": {"biological_target": "T2, Human EPCAM (Epithelial Cell Adhesion …)", "assay": "cell-based or functional assay"}}}
{"binder": "Humanized EPCAM-CD3 bivalent CrossFAB knob-in-hole bispecific antibody PBM005 (FIG. 1A structure) (bispecific antibody, Four constructs co-transfected in 293S cells at 2:1:1:1; Supernatant or protein A purified antibody was used; also called EPCAM-CROSS-FAB-CD3 Knob in hole (KIH) CrossFAB format antibody; EpCAM-CD3 CrossMab knob-in-hole) light: EIVLTQSPATLSLSPGERATLSCSASSSISYMHWYQQKPGQAPRLLIYDTSKLATGIPARFSGSGSGTDFTLTISSLEPEDFAVYYCHQRSSYPYTFGGGTKLEIKRTVAAPSVFIFPPSDEQLKSGTASVVCLLNNFYPREAKVQWKVDNALQSGNSQESVTEQDSKDSTYSLSSTLTLSKADYEKHKVYACEVTHQGLSSPVTKSFNRGEC QAVVTQEPSLTVSPGGTVTLTCGSSTGAVTTSNYANWVQEKPGQAFRGLIGGTNKRAPGTPARFSGSLLGGKAALTLSGAQPEDEAEYYCALWYSNLWVFGGGTKLTVLSSASTKGPSVFPLAPSSKSTSGGTAALGCLVKDYFPEPVTVSWNSGALTSGVHTFPAVLQSSGLYSLSSVVTVPSSSLGTQTYICNVNHKPSNTKVDKKVEPKSC heavy 1: not shown heavy 2: QVQLVQSGSELKKPGASVKVSCKASGYTFTNYGMNWVRQAPGQGLEWMGWINTYTGEPTYADDFKGRFVFSLDTSVSTAYLQISSLKAEDTAVYYCARWLRDFDYWGAGTTVTVSSTKGPSVFPLAPSSKSTSGGTAALGCLVKDYFPEPVTVSWNSGALTSGVHTFPAVLQSSGLYSLSSVVTVPSSSLGTQTYICNVNHKPSNTKVDKKVEPKSCDKTHTCPPCPAPEAAGGPSVFLFPPKPKDTLMISRTPEVTCVVVDVSHEDPEVKFNWYVDGVEVHNAKTKPREEQYNSTYRVVSVLTVLHQDWLNGKEYKCKVSNKALGAPIEKTISKAKGQPREPQVCTLPPSRDELTKNQVSLSCAVKGFYPSDIAVEWESNGQPENNYKTTPPVLDSDGSFFLVSKLTVDKSRWQQGNVFSCSVMHEALHNHYTQKSLSLSPGK", "values": [{"measurement": "binding result", "setting": "[1]", "result": "binds"}, {"measurement": "binding result", "setting": "[2]", "result": "binds"}]}
{"binder": "Humanized EPCAM ScFv-linker-CD3 ScFv-His tag (BITE) antibody PBM0065 (FIG. 1B structure) (bispecific antibody) scFv: QVQLVQSGSELKKPGASVKVSCKASGYTFTNYGMNWVRQAPGQGLEWMGWINTYTGEPTYADDFKGRFVFSLDTSVSTAYLQISSLKAEDTAVYYCARWLRDFDYWGAGTTVTVSSGGGGSGGGGSGGGGSEIVLTQSPATLSLSPGERATLSCSASSSISYMHWYQQKPGQAPRLLIYDTSKLATGIPARFSGSGSGTDFTLTISSLEPEDFAVYYCHQRSSYPYTFGGGTKLEIKGGGGSGGGGSGGGGSEVQLLESGGGLVQPGGSLRLSCAASGFTFSTYAMNWVRQAPGKGLEWVSRIRSKYNNYATYYADSVKGRFTISRDDSKNTLYLQMNSLRAEDTAVYYCVRHGNFGNSYVSWFAYWGQGTLVTVSSGGGGSGGGGSGGGGSQAVVTQEPSLTVSPGGTVTLTCGSSTGAVTTSNYANWVQEKPGQAFRGLIGGTNKRAPGTPARFSGSLLGGKAALTLSGAQPEDEAEYYCALWYSNLWVFGGGTKLTVLHHHHHH", "values": [{"measurement": "EC50 based on IFN-gamma secretion", "setting": "[3]", "result": 5.28, "unit": "ng/mL"}]}
